The stoichiometry N is a count of units in the complex or per binding partner.

Read-outs that look alike come from different tables or passages of the source.

Three molecules from paper doi:10.1101/439331 can be followed below.

Test [1] addresses SCARECROW (SCR)-mCherry translational fusion (SCR:SCR-mCherry) (Arabidopsis) (UniProt Q9M384). Nature of the test: Cross-Correlation Number and Brightness.
Test [2] has the same target. Nature of the test: Cross-Correlation Number and Brightness. The source holds these as a separate data set.
Test [3] concerns the target T1, SCARECROW (SCR)-GFP translational fusion (SCR:SCR-GFP) (Arabidopsis), Q9M384.
T1 chain: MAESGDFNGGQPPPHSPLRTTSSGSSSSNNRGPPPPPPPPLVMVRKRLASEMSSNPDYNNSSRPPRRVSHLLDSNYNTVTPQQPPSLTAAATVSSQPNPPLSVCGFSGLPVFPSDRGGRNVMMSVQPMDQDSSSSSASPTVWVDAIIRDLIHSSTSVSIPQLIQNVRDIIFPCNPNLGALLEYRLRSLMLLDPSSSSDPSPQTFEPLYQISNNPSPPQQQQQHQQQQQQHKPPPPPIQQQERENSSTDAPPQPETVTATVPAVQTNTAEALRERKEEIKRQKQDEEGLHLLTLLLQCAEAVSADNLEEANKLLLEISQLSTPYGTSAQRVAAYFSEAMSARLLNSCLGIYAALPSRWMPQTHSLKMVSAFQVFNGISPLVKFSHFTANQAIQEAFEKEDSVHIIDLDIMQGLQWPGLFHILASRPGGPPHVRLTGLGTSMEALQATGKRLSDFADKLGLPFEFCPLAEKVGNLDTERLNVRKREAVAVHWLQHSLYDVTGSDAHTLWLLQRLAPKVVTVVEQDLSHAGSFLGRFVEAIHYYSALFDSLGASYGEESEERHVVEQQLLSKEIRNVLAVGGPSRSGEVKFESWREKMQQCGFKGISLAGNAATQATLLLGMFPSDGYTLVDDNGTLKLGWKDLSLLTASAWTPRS
The test is described as follows: Number and Brightness. The conditions noted are these: remark: other sources report otherwise.

In test [4] the target is T1, SCARECROW (SCR)-GFP translational …. Nature of the test: Number and Brightness. Conditions: remark: other sources report otherwise.
In test [5] the target is SHORTROOT (SHR)-GFP translational fusion (SHR:SHR-GFP) (Arabidopsis) (UniProt Q9SZF7). The test is described as follows: Number and Brightness.

In test [1], “SHORTROOT (SHR)-GFP translational fusion (SHR:SHR-GFP) (from UniProt Q9SZF7 1-531) (natural protein)” came in with a percent of SHR-SCR complexes that are 1 SHR: 1 SCR of over 90% and a percent of SHR-SCR complexes that are 1 SHR: 2 SCR of 7%. In test [2], this molecule registered a binding score of the 2 SHR: 2 SCR complex of 1, a percent of SHR-SCR complexes that are 1 SHR: 1 SCR of over 90%, a percent of SHR-SCR complexes that are 1 SHR: 2 SCR of under 5% and a percent of SHR-SCR complexes that are 2 SHR: 1 SCR of 7%. The percent of SHR-SCR complexes that are 2 SHR: 2 SCR in test [2] is under 1%.

B1: SCARECROW (SCR)-GFP translational fusion (SCR:SCR-GFP), Q9M384 1-653 (natural protein)
chain: MAESGDFNGGQPPPHSPLRTTSSGSSSSNNRGPPPPPPPPLVMVRKRLASEMSSNPDYNNSSRPPRRVSHLLDSNYNTVTPQQPPSLTAAATVSSQPNPPLSVCGFSGLPVFPSDRGGRNVMMSVQPMDQDSSSSSASPTVWVDAIIRDLIHSSTSVSIPQLIQNVRDIIFPCNPNLGALLEYRLRSLMLLDPSSSSDPSPQTFEPLYQISNNPSPPQQQQQHQQQQQQHKPPPPPIQQQERENSSTDAPPQPETVTATVPAVQTNTAEALRERKEEIKRQKQDEEGLHLLTLLLQCAEAVSADNLEEANKLLLEISQLSTPYGTSAQRVAAYFSEAMSARLLNSCLGIYAALPSRWMPQTHSLKMVSAFQVFNGISPLVKFSHFTANQAIQEAFEKEDSVHIIDLDIMQGLQWPGLFHILASRPGGPPHVRLTGLGTSMEALQATGKRLSDFADKLGLPFEFCPLAEKVGNLDTERLNVRKREAVAVHWLQHSLYDVTGSDAHTLWLLQRLAPKVVTVVEQDLSHAGSFLGRFVEAIHYYSALFDSLGASYGEESEERHVVEQQLLSKEIRNVLAVGGPSRSGEVKFESWREKMQQCGFKGISLAGNAATQATLLLGMFPSDGYTLVDDNGTLKLGWKDLSLLTASAWTPRS
B1 showed a percent homodimer in test [3] of 6.6%. In test [4], this molecule showed a percent homodimer of 17.3% and a stoichiometry N of 2.

B2: SHORTROOT (SHR)-GFP translational fusion (SHR:SHR-GFP) (natural protein)
chain: MDTLFRLVSLQQQQQSDSIITNQSSLSRTSTTTTGSPQTAYHYNFPQNDVVEECFNFFMDEEDLSSSSSHHNHHNHNNPNTYYSPFTTPTQYHPATSSTPSSTAAAAALASPYSSSGHHNDPSAFSIPQTPPSFDFSANAKWADSVLLEAARAFSDKDTARAQQILWTLNELSSPYGDTEQKLASYFLQALFNRMTGSGERCYRTMVTAAATEKTCSFESTRKTVLKFQEVSPWATFGHVAANGAILEAVDGEAKIHIVDISSTFCTQWPTLLEALATRSDDTPHLRLTTVVVANKFVNDQTASHRMMKEIGNRMEKFARLMGVPFKFNIIHHVGDLSEFDLNELDVKPDEVLAINCVGAMHGIASRGSPRDAVISSFRRLRPRIVTVVEEEADLVGEEEGGFDDEFLRGFGECLRWFRVCFESWEESFPRTSNERLMLERAAGRAIVDLVACEPSDSTERRETARKWSRRMRNSGFGAVGYSDEVADDVRALLRRYKEGVWSMVQCPDAAGIFLCWRDQPVVWASAWRPT
B2 came in with a percent homodimer without m4 (scr4 mutant) in test [5] of under 1%.
